This is an account of results in publication PMC11681868.

The term Kd denotes the concentration at which binding is half-saturated. A high value points to lower affinity.

What all share (assay): ITC; iTC200; 5 μM scFv in the cell, 50 μM peptide in the syringe; samples dialyzed against PBS; triplicate
For orientation: Isothermal titration calorimetry measures the heat released or taken up as one component is titrated into another.

Assay [1] addresses rabbit antibody C7 scFv (wild type) (rabbit).
Assay [2] deals with rabbit antibody A4 scFv H-T56A (rabbit).
The target of assay [3] is rabbit antibody C7 scFv H-S54A (rabbit).
The target of assay [4] is rabbit antibody A4 scFv H-S53A (rabbit).
The target in assay [5] is rabbit antibody A4 scFv H-S54A (rabbit).
Assay [6] deals with rabbit antibody A4 scFv (wild type) (rabbit).
The target in assay [7] is rabbit antibody C7 scFv H-S52A (rabbit).

Where no end group is shown, it is not given here. [ ]: non-standard residue; d: D form. pS = N[C@@H](COP(=O)(O)O)C(=O)O

rabbit antibody C7 scFv H-S54A (rabbit), sequence (heavy, as listed by the source, chain 1 of 2): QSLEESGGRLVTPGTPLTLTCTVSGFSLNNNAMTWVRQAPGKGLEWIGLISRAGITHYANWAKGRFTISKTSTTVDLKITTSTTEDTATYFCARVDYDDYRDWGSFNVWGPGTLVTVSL
rabbit antibody C7 scFv H-S54A (rabbit), sequence (light, as listed by the source, chain 2 of 2): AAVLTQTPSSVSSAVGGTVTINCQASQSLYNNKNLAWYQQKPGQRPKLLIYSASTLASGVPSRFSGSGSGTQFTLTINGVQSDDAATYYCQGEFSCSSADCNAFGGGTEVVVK
rabbit antibody A4 scFv H-S54A (rabbit), sequence (heavy, as listed by the source, chain 1 of 2): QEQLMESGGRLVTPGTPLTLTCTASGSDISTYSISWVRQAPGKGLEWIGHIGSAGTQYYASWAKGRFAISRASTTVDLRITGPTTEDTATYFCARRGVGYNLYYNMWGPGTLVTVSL
rabbit antibody A4 scFv H-S54A (rabbit), sequence (light, as listed by the source, chain 2 of 2): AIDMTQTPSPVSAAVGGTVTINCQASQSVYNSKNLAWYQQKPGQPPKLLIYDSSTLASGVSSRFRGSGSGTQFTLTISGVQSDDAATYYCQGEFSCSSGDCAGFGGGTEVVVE
rabbit antibody A4 scFv H-S53A (rabbit), sequence (heavy, as listed by the source, chain 1 of 2): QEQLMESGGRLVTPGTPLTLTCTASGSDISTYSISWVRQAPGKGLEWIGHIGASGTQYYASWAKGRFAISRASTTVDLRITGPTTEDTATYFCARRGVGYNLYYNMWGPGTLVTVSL
rabbit antibody A4 scFv H-T56A (rabbit), sequence (heavy, as listed by the source, chain 1 of 2): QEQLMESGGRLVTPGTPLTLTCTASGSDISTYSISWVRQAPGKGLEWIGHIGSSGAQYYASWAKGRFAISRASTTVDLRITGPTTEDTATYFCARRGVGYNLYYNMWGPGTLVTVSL
rabbit antibody C7 scFv H-S52A (rabbit), sequence (heavy, as listed by the source, chain 1 of 2): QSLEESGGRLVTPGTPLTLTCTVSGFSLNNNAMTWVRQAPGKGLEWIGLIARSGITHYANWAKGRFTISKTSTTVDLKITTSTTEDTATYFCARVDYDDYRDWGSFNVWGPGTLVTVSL
rabbit antibody A4 scFv (wild type) (rabbit), sequence (heavy, as listed by the source, chain 1 of 2): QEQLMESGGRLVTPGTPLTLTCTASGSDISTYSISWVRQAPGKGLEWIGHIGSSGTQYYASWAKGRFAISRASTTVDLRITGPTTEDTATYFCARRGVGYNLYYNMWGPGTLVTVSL
rabbit antibody C7 scFv (wild type) (rabbit), sequence (heavy, as listed by the source, chain 1 of 2): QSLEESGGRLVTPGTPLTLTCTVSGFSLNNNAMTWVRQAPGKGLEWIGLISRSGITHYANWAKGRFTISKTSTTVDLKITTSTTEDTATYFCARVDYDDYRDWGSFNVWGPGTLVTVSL

B1: phosphorylated Akt peptide (peptide)
peptide: RPHFPQF[pS]YSAS
Consider B1, for which the Kd was found to be 26.9 nM in assay [1]; 4 nM in assay [2]; 95.3 nM in assay [3]; 3.55 nM in assay [4]; 6.95 nM in assay [5]; 3.34 nM in assay [6]. The dissociation constant (Kd) in assay [7] is 664 nM. The dH in assay [1] is -14.4 kcal/mol; in assay [2], -23 kcal/mol; in assay [3], -13.3 kcal/mol; in assay [4] it was -24.9 kcal/mol; in assay [5], -23.5 kcal/mol; in assay [6], -24.4 kcal/mol. Besides, the dH in assay [7] was -11.1 kcal/mol.
